B1: COMMD3, Q9UBI1 (peptide)
chain: SKSLERATQL
B2: MARCHF9, Q86YJ5 (peptide)
chain: REVVMRVTTV
B3: XKR7, Q5GH72 (peptide)
chain: QELLEYETTV

Key:
Assay in all cases: holdup assay
Set-up in all cases: key: below the threshold = too weak to quantify, mostly under pKd 3.1 to 4
Conditions in all cases: plain residues with an end cap or a label only (N-terminal biotin on a linker: ado-ado)
GORASP2, Q9H8Y8 = target: GORASP2, Q9H8Y8
FRMPD1, Q5SYB0 = target: T1, FRMPD1, Q5SYB0
T1 sequence (Q5SYB0 52-145, limits assumed, looked up): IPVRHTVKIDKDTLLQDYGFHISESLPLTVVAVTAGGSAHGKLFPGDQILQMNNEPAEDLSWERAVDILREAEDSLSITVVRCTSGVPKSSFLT

TJP2_1, Q9UDY2 = target: TJP2_1, Q9UDY2
SCRIB_3, Q14160 = target: SCRIB_3, Q14160
PARD3B_1, Q8TEW8 = target: T2, PARD3B_1, Q8TEW8
T2 sequence (Q8TEW8 196-299, limits assumed, looked up): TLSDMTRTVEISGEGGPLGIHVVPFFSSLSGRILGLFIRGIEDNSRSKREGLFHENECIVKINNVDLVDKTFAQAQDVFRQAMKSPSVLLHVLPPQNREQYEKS

MAGI2_5, Q86UL8 = target: MAGI2_5, Q86UL8
SNTB1, Q13884 = target: T3, SNTB1, Q13884
T3 sequence (Q13884 107-205, limits assumed, looked up): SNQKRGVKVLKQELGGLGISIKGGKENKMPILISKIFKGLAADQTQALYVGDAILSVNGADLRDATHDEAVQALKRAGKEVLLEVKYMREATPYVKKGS

DLG3_2, Q92796 = target: T4, DLG3_2, Q92796
T4 sequence (Q92796 221-321, limits assumed, looked up): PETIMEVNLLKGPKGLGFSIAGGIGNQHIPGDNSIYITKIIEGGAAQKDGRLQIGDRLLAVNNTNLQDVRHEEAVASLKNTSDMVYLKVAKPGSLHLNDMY

LNX2_2, Q8N448 = target: T5, LNX2_2, Q8N448
T5 sequence (Q8N448 334-432, limits assumed, looked up): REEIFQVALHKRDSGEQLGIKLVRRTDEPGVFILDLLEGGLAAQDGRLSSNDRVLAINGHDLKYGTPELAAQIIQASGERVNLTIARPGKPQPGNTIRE

FRMPD2_2, Q68DX3 = target: FRMPD2_2, Q68DX3
MAST1, Q9Y2H9 = target: MAST1, Q9Y2H9
GRIP1_5, Q9Y3R0 = target: T6, GRIP1_5, Q9Y3R0
T6 sequence (Q9Y3R0 568-668, limits assumed, looked up): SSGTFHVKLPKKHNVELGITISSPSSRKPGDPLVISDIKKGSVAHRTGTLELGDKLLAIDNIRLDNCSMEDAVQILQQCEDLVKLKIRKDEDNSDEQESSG

PTPN3, P26045 = target: PTPN3, P26045
Inadl_6, Q8NI35 = target: Inadl_6, Q8NI35
PICK1, Q9NRD5 = target: PICK1, Q9NRD5
FRMPD2_1, Q68DX3 = target: FRMPD2_1, Q68DX3
GOPC, Q9HD26 = target: GOPC, Q9HD26
MAST2, Q6P0Q8 = target: MAST2, Q6P0Q8
Inadl_8, Q8NI35 = target: Inadl_8, Q8NI35
DLG4_1, P78352 = target: DLG4_1, P78352
TX1BP3, O14907 = target: T7, TX1BP3, O14907
T7 sequence (O14907 10-122, limits assumed, looked up): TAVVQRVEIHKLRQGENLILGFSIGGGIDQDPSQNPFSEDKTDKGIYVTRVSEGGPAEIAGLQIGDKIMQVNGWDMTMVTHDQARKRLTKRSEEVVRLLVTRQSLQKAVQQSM

RAPGEF6, Q8TEU7 = target: T8, RAPGEF6, Q8TEU7
T8 sequence (Q8TEU7 525-625, limits assumed, looked up): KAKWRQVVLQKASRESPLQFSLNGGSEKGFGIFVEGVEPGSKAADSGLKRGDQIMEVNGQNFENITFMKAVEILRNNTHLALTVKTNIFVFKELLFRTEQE

HTRA2, O43464 = target: HTRA2, O43464
MPDZ_12, O75970 = target: T9, MPDZ_12, O75970
T9 sequence (O75970 1857-1958, limits assumed, looked up): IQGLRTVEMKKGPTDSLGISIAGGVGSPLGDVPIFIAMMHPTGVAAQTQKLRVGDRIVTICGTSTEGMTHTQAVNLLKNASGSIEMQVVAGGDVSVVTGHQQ

Inadl_3, Q8NI35 = target: Inadl_3, Q8NI35
MAGI2_4, Q86UL8 = target: MAGI2_4, Q86UL8
DLG3_1, Q92796 = target: T10, DLG3_1, Q92796
T10 sequence (Q92796 125-227, limits assumed, looked up): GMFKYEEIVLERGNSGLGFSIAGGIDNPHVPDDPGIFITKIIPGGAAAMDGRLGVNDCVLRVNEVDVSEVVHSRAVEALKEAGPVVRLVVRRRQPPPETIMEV

Chain of Inadl_6, Q8NI35 (Q8NI35 1058-1167): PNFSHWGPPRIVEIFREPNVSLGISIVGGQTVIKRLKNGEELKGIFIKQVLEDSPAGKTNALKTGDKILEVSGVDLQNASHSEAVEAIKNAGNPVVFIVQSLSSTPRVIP
Chain of MAST2, Q6P0Q8 (Q6P0Q8 1099-1202): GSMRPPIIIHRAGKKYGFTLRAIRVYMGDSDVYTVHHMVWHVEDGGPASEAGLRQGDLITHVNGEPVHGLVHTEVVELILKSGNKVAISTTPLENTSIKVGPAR
Chain of Inadl_8, Q8NI35 (Q8NI35 1425-1530): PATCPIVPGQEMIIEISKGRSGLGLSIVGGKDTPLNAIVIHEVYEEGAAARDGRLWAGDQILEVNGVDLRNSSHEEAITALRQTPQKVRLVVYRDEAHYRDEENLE
Chain of MAST1, Q9Y2H9 (Q9Y2H9 962-1065): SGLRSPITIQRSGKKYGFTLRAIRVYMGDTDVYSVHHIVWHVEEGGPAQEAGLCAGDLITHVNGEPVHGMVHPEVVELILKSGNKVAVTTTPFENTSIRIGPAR
Chain of PTPN3, P26045 (P26045 505-587): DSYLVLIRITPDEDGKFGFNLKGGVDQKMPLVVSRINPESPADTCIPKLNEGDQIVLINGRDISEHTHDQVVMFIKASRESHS
Chain of FRMPD2_2, Q68DX3 (Q68DX3 944-1038): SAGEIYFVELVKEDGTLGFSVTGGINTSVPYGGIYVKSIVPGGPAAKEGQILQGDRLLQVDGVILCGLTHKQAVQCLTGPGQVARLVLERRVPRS
Chain of MAGI2_4, Q86UL8 (Q86UL8 772-865): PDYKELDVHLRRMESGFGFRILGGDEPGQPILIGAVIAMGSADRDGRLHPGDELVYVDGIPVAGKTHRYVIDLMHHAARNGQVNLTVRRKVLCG
Chain of DLG4_1, P78352 (P78352 62-152): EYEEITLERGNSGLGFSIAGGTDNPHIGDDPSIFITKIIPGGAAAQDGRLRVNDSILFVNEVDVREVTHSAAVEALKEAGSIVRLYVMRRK
Chain of MAGI2_5, Q86UL8 (Q86UL8 915-1017): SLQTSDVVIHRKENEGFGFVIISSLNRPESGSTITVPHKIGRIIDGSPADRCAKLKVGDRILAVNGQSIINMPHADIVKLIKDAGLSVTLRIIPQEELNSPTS
Chain of FRMPD2_1, Q68DX3 (Q68DX3 770-861): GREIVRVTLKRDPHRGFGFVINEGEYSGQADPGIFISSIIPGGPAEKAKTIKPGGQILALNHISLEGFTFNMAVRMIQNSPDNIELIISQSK
Chain of TJP2_1, Q9UDY2 (Q9UDY2 24-128): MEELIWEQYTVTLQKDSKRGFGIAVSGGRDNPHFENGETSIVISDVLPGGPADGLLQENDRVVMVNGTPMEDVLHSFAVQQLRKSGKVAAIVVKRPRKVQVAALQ
Chain of SCRIB_3, Q14160 (Q14160 999-1103): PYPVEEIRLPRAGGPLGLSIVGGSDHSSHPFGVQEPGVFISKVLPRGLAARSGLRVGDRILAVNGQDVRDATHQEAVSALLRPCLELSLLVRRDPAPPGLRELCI
Chain of PICK1, Q9NRD5 (Q9NRD5 17-115): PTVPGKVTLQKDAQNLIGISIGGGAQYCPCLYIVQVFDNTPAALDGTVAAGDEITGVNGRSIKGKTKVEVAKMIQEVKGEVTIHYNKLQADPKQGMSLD
Chain of HTRA2, O43464 (O43464 355-458): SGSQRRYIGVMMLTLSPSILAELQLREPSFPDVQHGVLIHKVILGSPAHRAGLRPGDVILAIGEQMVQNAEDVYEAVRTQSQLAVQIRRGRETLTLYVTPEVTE
Chain of Inadl_3, Q8NI35 (Q8NI35 359-469): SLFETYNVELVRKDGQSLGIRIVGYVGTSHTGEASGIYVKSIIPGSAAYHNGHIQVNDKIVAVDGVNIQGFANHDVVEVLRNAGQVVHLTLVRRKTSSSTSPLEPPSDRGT

pKd (GORASP2, Q9H8Y8) | pKd (FRMPD1, Q5SYB0) | pKd (TJP2_1, Q9UDY2) | pKd (SCRIB_3, Q14160) | pKd (PARD3B_1, Q8TEW8) | pKd (MAGI2_5, Q86UL8) | pKd (SNTB1, Q13884) | pKd (DLG3_2, Q92796) | pKd (LNX2_2, Q8N448) | pKd (FRMPD2_2, Q68DX3) | pKd (MAST1, Q9Y2H9) | pKd (GRIP1_5, Q9Y3R0) | pKd (PTPN3, P26045) | pKd (Inadl_6, Q8NI35) | pKd (PICK1, Q9NRD5) | pKd (FRMPD2_1, Q68DX3) | pKd (GOPC, Q9HD26) | pKd (MAST2, Q6P0Q8) | pKd (Inadl_8, Q8NI35) | pKd (DLG4_1, P78352) | other results | Binder
3.84 | below the threshold | 3.72 | 4.54 | 3.95 | 4.49 | 4.24 | 4.01 | 3.56 | 3.65 | 4.69 | below the threshold | 4.91 | 3.57 | below the threshold | below the threshold | 3.81 | 5.7 | 3.52 | below the threshold | pKd (TX1BP3, O14907): below the threshold; pKd (RAPGEF6, Q8TEU7): 3.85; pKd (HTRA2, O43464): below the threshold; pKd (MPDZ_12, O75970): below the threshold; pKd (Inadl_3, Q8NI35): below the threshold; pKd (MAGI2_4, Q86UL8): 3.94; pKd (DLG3_1, Q92796): 3.72 | B1
5.53 | below the threshold | 3.92 | 4.43 | below the threshold | 4.12 | 5.37 | 5.23 | 5.6 | 4.11 | 4.65 | below the threshold | 4.91 | 3.89 | below the threshold | below the threshold | 4.9 | 5.59 | 5.46 | 5.06 | pKd (TX1BP3, O14907): 4.61; pKd (RAPGEF6, Q8TEU7): below the threshold; pKd (HTRA2, O43464): 3.56; pKd (MPDZ_12, O75970): below the threshold; pKd (Inadl_3, Q8NI35): 3.94; pKd (MAGI2_4, Q86UL8): 4.77; pKd (DLG3_1, Q92796): 4.38 | B2
3.8 | below the threshold | below the threshold | 4.81 | below the threshold | 4.89 | 5.07 | 4.85 | 4.71 | 4.83 | 4.97 | below the threshold | 4.85 | 4.01 | below the threshold | below the threshold | 3.96 | 5.46 | 3.59 | 4.94 | pKd (TX1BP3, O14907): 3.92; pKd (RAPGEF6, Q8TEU7): below the threshold; pKd (HTRA2, O43464): below the threshold; pKd (MPDZ_12, O75970): below the threshold; pKd (Inadl_3, Q8NI35): 4.63; pKd (MAGI2_4, Q86UL8): 4.26; pKd (DLG3_1, Q92796): 4.51 | B3

— publication PMC9482650, “Quantitative fragmentomics allow affinity mapping of interactomes” (Nature Communications, 2022)
